Residue numbers refer to the chain shown, from its start.
Columns and labels:
Experiment in all cases: flow cytometry, Fab on HEK-293T cells expressing the mutant; labels of this column stand one row too low, mutant assigned after shifting them up
[1] = target: T1, human CD131 D146A (human, UniProt P32927 17-897)
T1 construct: whole, on cells
T1 sequence (looked up): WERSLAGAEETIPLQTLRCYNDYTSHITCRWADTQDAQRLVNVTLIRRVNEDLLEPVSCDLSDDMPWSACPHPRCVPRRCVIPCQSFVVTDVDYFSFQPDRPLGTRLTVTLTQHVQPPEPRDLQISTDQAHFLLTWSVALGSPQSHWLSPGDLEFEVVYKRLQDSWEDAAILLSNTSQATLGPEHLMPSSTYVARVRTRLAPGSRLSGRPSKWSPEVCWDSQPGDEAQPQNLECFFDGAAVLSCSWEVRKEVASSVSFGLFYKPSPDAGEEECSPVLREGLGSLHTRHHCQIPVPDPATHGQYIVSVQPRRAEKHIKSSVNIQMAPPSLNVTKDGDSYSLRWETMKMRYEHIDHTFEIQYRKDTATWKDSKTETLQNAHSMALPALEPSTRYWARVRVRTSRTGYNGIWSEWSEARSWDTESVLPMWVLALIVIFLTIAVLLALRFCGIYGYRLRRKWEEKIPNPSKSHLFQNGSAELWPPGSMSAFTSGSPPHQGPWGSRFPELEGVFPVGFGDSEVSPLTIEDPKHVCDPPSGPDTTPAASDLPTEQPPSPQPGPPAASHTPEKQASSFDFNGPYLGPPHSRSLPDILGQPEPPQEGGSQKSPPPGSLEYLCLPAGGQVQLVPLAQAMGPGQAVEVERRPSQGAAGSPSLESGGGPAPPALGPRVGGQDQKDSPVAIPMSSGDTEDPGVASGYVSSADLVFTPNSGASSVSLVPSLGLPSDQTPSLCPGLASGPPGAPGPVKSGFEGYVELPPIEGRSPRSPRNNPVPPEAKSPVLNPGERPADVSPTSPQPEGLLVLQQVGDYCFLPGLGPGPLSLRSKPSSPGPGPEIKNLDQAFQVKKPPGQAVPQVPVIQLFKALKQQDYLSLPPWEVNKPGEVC

[2] = target: T2, human CD131 G198A (human, UniProt P32927 17-897)
T2 construct: whole, on cells
T2 sequence (looked up): T1 sequence (looked up) with A130D, G182A

[3] = target: T3, human CD131 D144A (human, UniProt P32927 17-897)
T3 construct: whole, on cells
T3 sequence (looked up): T1 sequence (looked up) with D128A, A130D

Binding Reactivity (% WT) [1]: 88.4 % WT
Binding Reactivity (% WT) [2]: 194 % WT
Binding Reactivity (% WT) [3]: 129 % WT
B1: anti-CD131 antibody 131-B2, Fab (Fab, V domains shown)
VH: QVQLVQSGAEVKEPGASVKISCKASGYTFTNDYMHWVRQAPGQGLEWMGIINPTGGGTSYAQKFRGRVTMTRDTSTSTVYMELSSLRSEDTAVFYCARERYYGSGTYFNIGLWYFDLWGRGTLVTVSS
VL: not shown
notes: Fab made from the antibody by an enzyme treatment

From US20250092148A1 (Kyowa Kirin, published 2025)
